Starred links: 1 amine or outer side, 2 acyl side, 3 side chain; linkers in the order of their positions; H or OH if unused. Non-standard residues stand in square brackets, D forms with d. tBuAla = CC(C)(C)C[C@H](N)C(=O)O; Cha = N[C@@H](CC1CCCCC1)C(=O)O; Suc = O=C(CCC(=O)[*:2])[*:1]; Aib = CC(C)(N)C(=O)O
T1: human Y2 receptor (human, UniProt P49146 1-381)
T1 sequence (looked up): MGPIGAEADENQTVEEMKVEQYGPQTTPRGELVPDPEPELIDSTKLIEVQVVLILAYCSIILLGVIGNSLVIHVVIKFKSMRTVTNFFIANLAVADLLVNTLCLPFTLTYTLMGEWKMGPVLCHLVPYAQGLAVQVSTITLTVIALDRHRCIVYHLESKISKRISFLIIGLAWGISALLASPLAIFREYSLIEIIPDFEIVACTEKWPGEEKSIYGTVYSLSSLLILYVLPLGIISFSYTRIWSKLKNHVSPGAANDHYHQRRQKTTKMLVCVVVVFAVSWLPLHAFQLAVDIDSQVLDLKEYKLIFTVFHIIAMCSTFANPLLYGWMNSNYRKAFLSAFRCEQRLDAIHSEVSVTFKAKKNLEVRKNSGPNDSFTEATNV

B1: 3-Carboxypropionyl-[D-Pro24, Cha27,28,36, Lys30, Aib31]-PYY(23-36) (peptide)
peptide: Suc-S[dP]RH[Cha][Cha]NK[Aib]TRQR[Cha]-NH2
SMILES: C[C@@H](O)[C@H](NC(=O)C(C)(C)NC(=O)[C@H](CCCCN)NC(=O)[C@H](CC(N)=O)NC(=O)[C@H](CC1CCCCC1)NC(=O)[C@H](CC1CCCCC1)NC(=O)[C@H](Cc1c[nH]cn1)NC(=O)[C@H](CCCNC(=N)N)NC(=O)[C@H]1CCCN1C(=O)[C@H](CO)NC(=O)CCC(=O)O)C(=O)N[C@@H](CCCNC(=N)N)C(=O)N[C@@H](CCC(N)=O)C(=O)N[C@@H](CCCNC(=N)N)C(=O)N[C@@H](CC1CCCCC1)C(N)=O
notes: also called compound No. 167
B2: Ac-[Gly24, Cha27,28,36, Aib31]-PYY(23-36) (peptide)
peptide: Ac-SGRH[Cha][Cha]NL[Aib]TRQR[Cha]-NH2
SMILES: CC(=O)N[C@@H](CO)C(=O)NCC(=O)N[C@@H](CCCNC(=N)N)C(=O)N[C@@H](Cc1c[nH]cn1)C(=O)N[C@@H](CC1CCCCC1)C(=O)N[C@@H](CC1CCCCC1)C(=O)N[C@@H](CC(N)=O)C(=O)N[C@@H](CC(C)C)C(=O)NC(C)(C)C(=O)N[C@H](C(=O)N[C@@H](CCCNC(=N)N)C(=O)N[C@@H](CCC(N)=O)C(=O)N[C@@H](CCCNC(=N)N)C(=O)N[C@@H](CC1CCCCC1)C(N)=O)[C@@H](C)O
notes: also called compound No. 112
B3: Ac-[Asn23, D-Pro24, Cha27,28,36, Aib31]-PYY(23-36) (peptide)
peptide: Ac-N[dP]RH[Cha][Cha]NL[Aib]TRQR[Cha]-NH2
SMILES: CC(=O)N[C@@H](CC(N)=O)C(=O)N1CCC[C@@H]1C(=O)N[C@@H](CCCNC(=N)N)C(=O)N[C@@H](Cc1c[nH]cn1)C(=O)N[C@@H](CC1CCCCC1)C(=O)N[C@@H](CC1CCCCC1)C(=O)N[C@@H](CC(N)=O)C(=O)N[C@@H](CC(C)C)C(=O)NC(C)(C)C(=O)N[C@H](C(=O)N[C@@H](CCCNC(=N)N)C(=O)N[C@@H](CCC(N)=O)C(=O)N[C@@H](CCCNC(=N)N)C(=O)N[C@@H](CC1CCCCC1)C(N)=O)[C@@H](C)O
notes: also called compound No. 115
B4: Ac-[D-Pro24, Glu26, Cha27,28,36, Aib31]-PYY(23-36) (peptide)
peptide: Ac-S[dP]RE[Cha][Cha]NL[Aib]TRQR[Cha]-NH2
SMILES: CC(=O)N[C@@H](CO)C(=O)N1CCC[C@@H]1C(=O)N[C@@H](CCCNC(=N)N)C(=O)N[C@@H](CCC(=O)O)C(=O)N[C@@H](CC1CCCCC1)C(=O)N[C@@H](CC1CCCCC1)C(=O)N[C@@H](CC(N)=O)C(=O)N[C@@H](CC(C)C)C(=O)NC(C)(C)C(=O)N[C@H](C(=O)N[C@@H](CCCNC(=N)N)C(=O)N[C@@H](CCC(N)=O)C(=O)N[C@@H](CCCNC(=N)N)C(=O)N[C@@H](CC1CCCCC1)C(N)=O)[C@@H](C)O
notes: also called compound No. 151
B5: Ac-[D-Pro24, Cha27,36, Leu(Me)28, Lys30, Aib31]-PYY(23-36) (peptide)
peptide: Ac-S[dP]RH[Cha][tBuAla]NK[Aib]TRQR[Cha]-NH2
SMILES: CC(=O)N[C@@H](CO)C(=O)N1CCC[C@@H]1C(=O)N[C@@H](CCCNC(=N)N)C(=O)N[C@@H](Cc1c[nH]cn1)C(=O)N[C@@H](CC1CCCCC1)C(=O)N[C@@H](CC(C)(C)C)C(=O)N[C@@H](CC(N)=O)C(=O)N[C@@H](CCCCN)C(=O)NC(C)(C)C(=O)N[C@H](C(=O)N[C@@H](CCCNC(=N)N)C(=O)N[C@@H](CCC(N)=O)C(=O)N[C@@H](CCCNC(=N)N)C(=O)N[C@@H](CC1CCCCC1)C(N)=O)[C@@H](C)O
notes: also called compound No. 136
B6: Ac-[Glu23, D-Pro24, Cha27,36, Aib28,31, Lys30]-PYY(23-36) (peptide)
peptide: Ac-E[dP]RH[Cha][Aib]NK[Aib]TRQR[Cha]-NH2
SMILES: CC(=O)N[C@@H](CCC(=O)O)C(=O)N1CCC[C@@H]1C(=O)N[C@@H](CCCNC(=N)N)C(=O)N[C@@H](Cc1c[nH]cn1)C(=O)N[C@@H](CC1CCCCC1)C(=O)NC(C)(C)C(=O)N[C@@H](CC(N)=O)C(=O)N[C@@H](CCCCN)C(=O)NC(C)(C)C(=O)N[C@H](C(=O)N[C@@H](CCCNC(=N)N)C(=O)N[C@@H](CCC(N)=O)C(=O)N[C@@H](CCCNC(=N)N)C(=O)N[C@@H](CC1CCCCC1)C(N)=O)[C@@H](C)O
notes: also called compound No. 171
B7: Ac-[D-Pro24, Thr26, Cha27,28,36, Aib31]-PYY(23-36) (peptide)
peptide: Ac-S[dP]RT[Cha][Cha]NL[Aib]TRQR[Cha]-NH2
SMILES: CC(=O)N[C@@H](CO)C(=O)N1CCC[C@@H]1C(=O)N[C@@H](CCCNC(=N)N)C(=O)N[C@H](C(=O)N[C@@H](CC1CCCCC1)C(=O)N[C@@H](CC1CCCCC1)C(=O)N[C@@H](CC(N)=O)C(=O)N[C@@H](CC(C)C)C(=O)NC(C)(C)C(=O)N[C@H](C(=O)N[C@@H](CCCNC(=N)N)C(=O)N[C@@H](CCC(N)=O)C(=O)N[C@@H](CCCNC(=N)N)C(=O)N[C@@H](CC1CCCCC1)C(N)=O)[C@@H](C)O)[C@@H](C)O
notes: also called compound No. 147
B8: Ac-[D-Pro24, Cha27,28,36, Thr30, Aib31]-PYY(23-36) (peptide)
peptide: Ac-S[dP]RH[Cha][Cha]NT[Aib]TRQR[Cha]-NH2
SMILES: CC(=O)N[C@@H](CO)C(=O)N1CCC[C@@H]1C(=O)N[C@@H](CCCNC(=N)N)C(=O)N[C@@H](Cc1c[nH]cn1)C(=O)N[C@@H](CC1CCCCC1)C(=O)N[C@@H](CC1CCCCC1)C(=O)N[C@@H](CC(N)=O)C(=O)N[C@H](C(=O)NC(C)(C)C(=O)N[C@H](C(=O)N[C@@H](CCCNC(=N)N)C(=O)N[C@@H](CCC(N)=O)C(=O)N[C@@H](CCCNC(=N)N)C(=O)N[C@@H](CC1CCCCC1)C(N)=O)[C@@H](C)O)[C@@H](C)O
notes: also called compound No. 132
B9: Ac-[Glu23, D-Pro24, Cha27,36, Leu(Me)28, Lys30, Aib31]-PYY(23-36) (peptide)
peptide: Ac-E[dP]RH[Cha][tBuAla]NK[Aib]TRQR[Cha]-NH2
SMILES: CC(=O)N[C@@H](CCC(=O)O)C(=O)N1CCC[C@@H]1C(=O)N[C@@H](CCCNC(=N)N)C(=O)N[C@@H](Cc1c[nH]cn1)C(=O)N[C@@H](CC1CCCCC1)C(=O)N[C@@H](CC(C)(C)C)C(=O)N[C@@H](CC(N)=O)C(=O)N[C@@H](CCCCN)C(=O)NC(C)(C)C(=O)N[C@H](C(=O)N[C@@H](CCCNC(=N)N)C(=O)N[C@@H](CCC(N)=O)C(=O)N[C@@H](CCCNC(=N)N)C(=O)N[C@@H](CC1CCCCC1)C(N)=O)[C@@H](C)O
notes: also called compound No. 168
B10: Ac-[D-Thr23, D-Pro24, Cha27,28,36, Aib31]-PYY(23-36) (peptide)
peptide: Ac-[dT][dP]RH[Cha][Cha]NL[Aib]TRQR[Cha]-NH2
SMILES: CC(=O)N[C@@H](C(=O)N1CCC[C@@H]1C(=O)N[C@@H](CCCNC(=N)N)C(=O)N[C@@H](Cc1c[nH]cn1)C(=O)N[C@@H](CC1CCCCC1)C(=O)N[C@@H](CC1CCCCC1)C(=O)N[C@@H](CC(N)=O)C(=O)N[C@@H](CC(C)C)C(=O)NC(C)(C)C(=O)N[C@H](C(=O)N[C@@H](CCCNC(=N)N)C(=O)N[C@@H](CCC(N)=O)C(=O)N[C@@H](CCCNC(=N)N)C(=O)N[C@@H](CC1CCCCC1)C(N)=O)[C@@H](C)O)[C@H](C)O
notes: also called compound No. 158
B11: Ac-[Tyr23, D-Pro24, Cha27,28,36, Aib31]-PYY(23-36) (peptide)
peptide: Ac-Y[dP]RH[Cha][Cha]NL[Aib]TRQR[Cha]-NH2
SMILES: CC(=O)N[C@@H](Cc1ccc(O)cc1)C(=O)N1CCC[C@@H]1C(=O)N[C@@H](CCCNC(=N)N)C(=O)N[C@@H](Cc1c[nH]cn1)C(=O)N[C@@H](CC1CCCCC1)C(=O)N[C@@H](CC1CCCCC1)C(=O)N[C@@H](CC(N)=O)C(=O)N[C@@H](CC(C)C)C(=O)NC(C)(C)C(=O)N[C@H](C(=O)N[C@@H](CCCNC(=N)N)C(=O)N[C@@H](CCC(N)=O)C(=O)N[C@@H](CCCNC(=N)N)C(=O)N[C@@H](CC1CCCCC1)C(N)=O)[C@@H](C)O
notes: also called compound No. 162
B12: Ac-[D-Pro24, Cha27,36, Aib28, Lys30, Aib31]-PYY(23-36) (peptide)
peptide: Ac-S[dP]RH[Cha][Aib]NK[Aib]TRQR[Cha]-NH2
SMILES: CC(=O)N[C@@H](CO)C(=O)N1CCC[C@@H]1C(=O)N[C@@H](CCCNC(=N)N)C(=O)N[C@@H](Cc1c[nH]cn1)C(=O)N[C@@H](CC1CCCCC1)C(=O)NC(C)(C)C(=O)N[C@@H](CC(N)=O)C(=O)N[C@@H](CCCCN)C(=O)NC(C)(C)C(=O)N[C@H](C(=O)N[C@@H](CCCNC(=N)N)C(=O)N[C@@H](CCC(N)=O)C(=O)N[C@@H](CCCNC(=N)N)C(=O)N[C@@H](CC1CCCCC1)C(N)=O)[C@@H](C)O
notes: also called compound No. 135
B13: Ac-[Glu23, D-Pro24, Cha27,28,36, Lys30, Aib31]-PYY(23-36) (peptide)
peptide: Ac-E[dP]RH[Cha][Cha]NK[Aib]TRQR[Cha]-NH2
SMILES: CC(=O)N[C@@H](CCC(=O)O)C(=O)N1CCC[C@@H]1C(=O)N[C@@H](CCCNC(=N)N)C(=O)N[C@@H](Cc1c[nH]cn1)C(=O)N[C@@H](CC1CCCCC1)C(=O)N[C@@H](CC1CCCCC1)C(=O)N[C@@H](CC(N)=O)C(=O)N[C@@H](CCCCN)C(=O)NC(C)(C)C(=O)N[C@H](C(=O)N[C@@H](CCCNC(=N)N)C(=O)N[C@@H](CCC(N)=O)C(=O)N[C@@H](CCCNC(=N)N)C(=O)N[C@@H](CC1CCCCC1)C(N)=O)[C@@H](C)O
notes: also called compound No. 137

These binders were tested against T1, human Y2 receptor (assay: cell-based or functional assay).

GBA EC50 Ratio (vs PYY(3-36)), [35S]GTPγS	Binder
1.1 ratio	B1
3.9 ratio	B2
1.7 ratio	B3
9.5 ratio	B4
0.63 ratio	B5
1.6 ratio	B6
2.1 ratio	B7
3.1 ratio	B8
1.1 ratio	B9
2.6 ratio	B10
2.6 ratio	B11
0.84 ratio	B12
1.8 ratio	B13

These binders were tested against T1, human Y2 receptor (assay: RBA: [125I]-PYY displacement, hY2R/CHO membranes).
Experimental: After incubation at room temperature for 60 minutes, the mixture was filtered through the cell harvester FilterMate (PerkinElmer) using UniFilter-96 GF/C treated with polyethylenimine (PEI) solution (20 mM Tris, 0.3% PEI, pH 7.4), and the filter was washed 3 times with a filtering buffer (50 mM Tris, 5 mM MgCl₂, 150 mM NaCl, 0.03% NaN₃, 0.05% CHAPS, pH 7.4). Thereafter, UniFilter-96 GF/C was dried in a mechanical drier for 1 hour, 15 μl of the liquid scintillator MicroScint O (PerkinElmer) was added to each well, and a measurement was taken using TopCount (PerkinElmer). The data obtained were analyzed using Prism to calculate the IC₅₀ value.

IC50 Ratio (vs PYY(3-36))	Binder
0.64 ratio	B1
6.3 ratio	B2
2.4 ratio	B3
68 ratio	B4
0.57 ratio	B5
2.9 ratio	B6
9.3 ratio	B7
6.1 ratio	B8
0.73 ratio	B9
7.1 ratio	B10
5.2 ratio	B11
1.9 ratio	B12
3.6 ratio	B13
